Target: Murine CD40L on the Th2 cell line D10.G4.1 (murine) (UniProt P27548)
Experiment: cell-based or functional assay

Chain of Murine CD40L on the Th2 cell line D10.G4.1 (murine) (P27548 whole entry): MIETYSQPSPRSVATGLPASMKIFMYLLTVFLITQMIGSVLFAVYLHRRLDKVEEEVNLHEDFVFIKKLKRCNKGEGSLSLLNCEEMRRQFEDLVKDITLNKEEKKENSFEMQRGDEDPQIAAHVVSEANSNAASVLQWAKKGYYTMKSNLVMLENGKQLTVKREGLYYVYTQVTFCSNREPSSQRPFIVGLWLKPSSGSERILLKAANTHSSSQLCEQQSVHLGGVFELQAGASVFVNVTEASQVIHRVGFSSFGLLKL

IC50, inhibition of CD86 expression on CD19 gated B cells: 0.1 nM
Substance: MR1, anti-murine CD40L antibody

Source: patent publication US20130079280A1
